Test results: PMC5218393 (PLoS ONE, 2017)
Residue numbers refer to the chain shown, from its start.

B1: A1 (antibody, V domains shown)
VH: QVQLVQSGAEVRRPGSSVRISCRTSGGTFNNYALSWVRQAPGQGLEWMGGIIPIVGTAVYAEKFEDSVTVTADESASTAYMEVRSLRSEDTAVYYCATGEKFVSPWFGDLPLHHWGQGTLVTVSS
VL: QSVLTQPPSVSGAPGQRVTISCTGSSSNIGAPYDVHWYQQVPGTAPKLLIYGNTNRPSRVPDRFSGSKSGTSASLAITGLQADDEADYYCQSYDRSLGGSIFGGGTKLTVL
B2: C7 scFv (soluble, purified) (scFv, V domains shown)
VH: B1 VH with V2M, R87G
VL: B1 VL with V41I, R59G
notes: VH of clone C7, as in m3; linker, printed as (Gly4Ser)3; VL of clone C7, as in m3; Single band of 29-30 kDa; monomer by size exclusion chromatography; The 6xHis tag is named in the discussion (6xHis tag antibody); also called the scFv form; the purified C7 scFv; source: E. coli HB2151, periplasmic fraction, purified (His Trap excel)
B3: B8 (antibody, V domains shown)
VH: B1 VH with V2M
VL: B1 VL with V41L, R59G, L108V
B4: A4 (antibody, V domains shown)
VH: B1 VH
VL: B1 VL with R59G

Key:
[1] = molecular target: T1, recombinant Lu extracellular domain fused with an Fc-Tag (Lu-Fc) (Homo sapiens, UniProt P50895)
T1 sequence (P50895 32-547): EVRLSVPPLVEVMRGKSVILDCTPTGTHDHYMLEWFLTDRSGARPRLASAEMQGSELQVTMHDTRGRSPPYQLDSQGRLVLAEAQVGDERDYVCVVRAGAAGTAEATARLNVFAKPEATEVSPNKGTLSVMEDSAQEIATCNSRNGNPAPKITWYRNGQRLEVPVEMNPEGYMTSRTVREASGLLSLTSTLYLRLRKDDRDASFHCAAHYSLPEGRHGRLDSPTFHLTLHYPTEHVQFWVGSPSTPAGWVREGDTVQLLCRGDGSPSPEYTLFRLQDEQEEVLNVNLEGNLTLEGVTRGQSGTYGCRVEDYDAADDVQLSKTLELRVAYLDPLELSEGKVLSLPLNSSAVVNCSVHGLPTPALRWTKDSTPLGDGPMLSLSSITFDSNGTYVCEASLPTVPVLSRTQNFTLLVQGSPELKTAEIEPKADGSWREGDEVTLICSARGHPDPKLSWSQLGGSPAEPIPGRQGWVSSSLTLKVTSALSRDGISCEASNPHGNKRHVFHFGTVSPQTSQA

H12M35-Fc = H12M35-Fc (Homo sapiens / Mus musculus chimera, UniProt P50895;Q9R069, chimera)
Chain of H12M35-Fc (Q9R069 other isoform, or with tags, fused parts or gaps chimera): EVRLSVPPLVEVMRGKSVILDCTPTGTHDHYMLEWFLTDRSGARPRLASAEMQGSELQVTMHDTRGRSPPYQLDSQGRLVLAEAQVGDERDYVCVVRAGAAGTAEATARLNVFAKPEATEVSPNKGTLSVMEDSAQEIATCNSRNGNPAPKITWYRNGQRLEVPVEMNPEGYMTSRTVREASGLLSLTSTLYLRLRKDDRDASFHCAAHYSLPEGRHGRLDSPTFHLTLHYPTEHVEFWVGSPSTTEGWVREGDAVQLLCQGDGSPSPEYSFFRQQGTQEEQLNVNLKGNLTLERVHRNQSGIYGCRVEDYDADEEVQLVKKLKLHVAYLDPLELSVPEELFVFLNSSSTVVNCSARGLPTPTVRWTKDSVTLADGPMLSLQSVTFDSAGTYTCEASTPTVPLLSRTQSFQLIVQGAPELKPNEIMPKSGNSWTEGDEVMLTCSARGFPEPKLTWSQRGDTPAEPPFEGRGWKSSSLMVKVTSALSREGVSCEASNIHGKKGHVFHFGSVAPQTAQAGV

[2] = molecular target: recombinant Lu extracellular domain fused with a 6xHis-Tag (Sol-Lu) (Homo sapiens, UniProt P50895)
Chain of recombinant Lu extracellular domain fused with a 6xHis-Tag (Sol-Lu) (P50895 32-547): as the sequence (P50895 32-547) above

[3] = molecular target: T1, recombinant Lu extracellular domain …; test: SPR; BIAcore T200; Lu-Fc immobilized on a CM5 chip; C7 scFv (6.25, 12.5, 25, 50 and 100 nM) injected in 10 mM HEPES pH 7.4, 150 mM NaCl, 3 mM EDTA, 0.005% Tween 20 at 50 μl/min; nonlinear fitting; settings: both partners purified

Row | Binder | binding result [1] | binding result (H12M35-Fc) | binding result [2] | Kd [3] | koff [3] | kon [3]
1 | B1 | binds | binds | binds |  |  | 
2 | B2 |  |  |  | 36.6 nM | 0.0049 s⁻¹ | 135000 M⁻¹ s⁻¹
3 | B3 | binds | binds | binds |  |  | 
4 | B4 | binds | binds | binds |  |  | 
